From the Human Domainome abundance scans (Beltran et al. 2025)
± gives the uncertainty stated by the source.

B1: COUP transcription factor 1, residues 83 to 159; numbered along this chain, P10589 (parent)
chain: HIECVVCGDKSSGKHYGQFTCEGCKSFFKRSVRRNLTYTCRANRNCPIDQHHRNQCQYCRLKKCLKVGMRREAVQRG

Variants of: B1
Experiment: abundance fitness (aPCA) (normalised: wild type 0, dead -1); higher = more abundant; growth selection in yeast, the domain comes from the species named
Settings: Homo sapiens

Variant | abundance fitness
C64D | -0.893 ± 0.18
C64V | -0.823 ± 0.072
Q57P | -0.042 ± 0.083
Q57W | 0.156 ± 0.068
Q57C | -0.093 ± 0.14
L65C | -0.265 ± 0.06
L65D | 0.015 ± 0.055
R44W | -0.07 ± 0.051
N45S | 0.061 ± 0.08
N45K | -0.265 ± 0.2
N45W | -0.049 ± 0.096
N45V | -0.058 ± 0.057
N45D | -0.035 ± 0.12
Q18N | -0.345 ± 0.25
Q18S | -0.028 ± 0.068
Q18V | 0.261 ± 0.046
Q18G | -0.061 ± 0.047
G23W | 0.189 ± 0.088
G23F | 0.044 ± 0.43
G23C | 0.001 ± 0.36
R41T | -0.068 ± 0.082

Variant | abundance fitness
R41F | -0.239 ± 0.2
R41C | 0.038 ± 0.099
R41N | 0.21 ± 0.17
V67Y | -0.18 ± 0.093
V67C | -0.088 ± 0.069
V67E | 0.013 ± 0.04
V67W | -0.325 ± 0.053
V5I | 0.314 ± 0.12
V5R | 0.295 ± 0.062
V5C | -0.027 ± 0.13
V5W | 0.003 ± 0.09
V5D | -0.081 ± 0.13
V5G | 0.012 ± 0.056
R60I | -0.227 ± 0.076
R60Q | 0.197 ± 0.045
R60W | 0.139 ± 0.038
R60S | -0.56 ± 0.064
R60D | -0.535 ± 0.11
E22V | -0.064 ± 0.06
E22Q | 0.181 ± 0.089
E22P | -0.038 ± 0.077

Variant | abundance fitness
E22R | -0.504 ± 0.085
C4A | -1.04 ± 0.14
C4K | -0.775 ± 0.18
C4Y | -0.9 ± 0.12
C4Q | -1.25 ± 0.32
C56R | -0.886 ± 0.091
C56Q | -0.82 ± 0.28
C56F | -0.506 ± 0.17
C56G | -0.786 ± 0.08
R76W | 0.007 ± 0.051
R76C | 0.082 ± 0.068
H1D | 0.6 ± 0.17
H1T | 0.074 ± 0.12
H1C | -0.258 ± 0.19
H1N | 0.07 ± 0.29
H1L | 0.03 ± 0.14
G17K | -0.452 ± 0.17
G17C | -0.274 ± 0.16
G17Y | -0.396 ± 0.36
G17D | -0.072 ± 0.067
L61I | -0.163 ± 0.071

Variant | abundance fitness
L61M | 0.073 ± 0.042
R53Y | 0.224 ± 0.23
R53T | 0.017 ± 0.066
R53C | -0.001 ± 0.11
G8M | -0.078 ± 0.12
G8S | 0.077 ± 0.073
G8N | -0.045 ± 0.49
F19Q | 0.125 ± 0.076
F19A | -0.101 ± 0.071
F19L | -0.129 ± 0.075
F19M | -0.149 ± 0.1
F19H | -0.037 ± 0.12
F19C | -0.216 ± 0.12
F19T | -0.094 ± 0.11
V74S | -0.199 ± 0.044
V74D | -0.065 ± 0.056
V74C | -0.032 ± 0.052
V74M | -0.185 ± 0.055
V74T | -0.112 ± 0.053
K66R | -0.021 ± 0.034
K66F | -0.013 ± 0.066
